Laboratory results: patent US20040005643A1

Tests used:
human tenascin-C (human) [1] = target: human tenascin-C (human) (UniProt P24821); experiment: BIAcore
human tenascin-C (human) [2] = target: human tenascin-C (human) (UniProt P24821); experiment: ELISA, biotinylated antibody, 7-10 moles biotin/antibody
human tenascin-C (human) [3] = target: human tenascin-C (human) (UniProt P24821); experiment: ELISA, biotinylated antibody, 3.5-5 moles biotin/antibody
human tenascin-C (human) [4] = target: human tenascin-C (human) (UniProt P24821); experiment: ELISA, biotinylated antibody, 15-20 moles biotin/antibody
human tenascin-C (human) [5] = target: human tenascin-C (human) (UniProt P24821); experiment: immunoreactivity of the batch used for biodistribution, 7-10 biotins/mole
human tenascin-C (human) [6] = target: human tenascin-C (human) (UniProt P24821); experiment: ELISA, biotinylated antibody, 2-3 moles biotin/antibody

Sequence of human tenascin-C (human) (P24821 23-2201 limits assumed): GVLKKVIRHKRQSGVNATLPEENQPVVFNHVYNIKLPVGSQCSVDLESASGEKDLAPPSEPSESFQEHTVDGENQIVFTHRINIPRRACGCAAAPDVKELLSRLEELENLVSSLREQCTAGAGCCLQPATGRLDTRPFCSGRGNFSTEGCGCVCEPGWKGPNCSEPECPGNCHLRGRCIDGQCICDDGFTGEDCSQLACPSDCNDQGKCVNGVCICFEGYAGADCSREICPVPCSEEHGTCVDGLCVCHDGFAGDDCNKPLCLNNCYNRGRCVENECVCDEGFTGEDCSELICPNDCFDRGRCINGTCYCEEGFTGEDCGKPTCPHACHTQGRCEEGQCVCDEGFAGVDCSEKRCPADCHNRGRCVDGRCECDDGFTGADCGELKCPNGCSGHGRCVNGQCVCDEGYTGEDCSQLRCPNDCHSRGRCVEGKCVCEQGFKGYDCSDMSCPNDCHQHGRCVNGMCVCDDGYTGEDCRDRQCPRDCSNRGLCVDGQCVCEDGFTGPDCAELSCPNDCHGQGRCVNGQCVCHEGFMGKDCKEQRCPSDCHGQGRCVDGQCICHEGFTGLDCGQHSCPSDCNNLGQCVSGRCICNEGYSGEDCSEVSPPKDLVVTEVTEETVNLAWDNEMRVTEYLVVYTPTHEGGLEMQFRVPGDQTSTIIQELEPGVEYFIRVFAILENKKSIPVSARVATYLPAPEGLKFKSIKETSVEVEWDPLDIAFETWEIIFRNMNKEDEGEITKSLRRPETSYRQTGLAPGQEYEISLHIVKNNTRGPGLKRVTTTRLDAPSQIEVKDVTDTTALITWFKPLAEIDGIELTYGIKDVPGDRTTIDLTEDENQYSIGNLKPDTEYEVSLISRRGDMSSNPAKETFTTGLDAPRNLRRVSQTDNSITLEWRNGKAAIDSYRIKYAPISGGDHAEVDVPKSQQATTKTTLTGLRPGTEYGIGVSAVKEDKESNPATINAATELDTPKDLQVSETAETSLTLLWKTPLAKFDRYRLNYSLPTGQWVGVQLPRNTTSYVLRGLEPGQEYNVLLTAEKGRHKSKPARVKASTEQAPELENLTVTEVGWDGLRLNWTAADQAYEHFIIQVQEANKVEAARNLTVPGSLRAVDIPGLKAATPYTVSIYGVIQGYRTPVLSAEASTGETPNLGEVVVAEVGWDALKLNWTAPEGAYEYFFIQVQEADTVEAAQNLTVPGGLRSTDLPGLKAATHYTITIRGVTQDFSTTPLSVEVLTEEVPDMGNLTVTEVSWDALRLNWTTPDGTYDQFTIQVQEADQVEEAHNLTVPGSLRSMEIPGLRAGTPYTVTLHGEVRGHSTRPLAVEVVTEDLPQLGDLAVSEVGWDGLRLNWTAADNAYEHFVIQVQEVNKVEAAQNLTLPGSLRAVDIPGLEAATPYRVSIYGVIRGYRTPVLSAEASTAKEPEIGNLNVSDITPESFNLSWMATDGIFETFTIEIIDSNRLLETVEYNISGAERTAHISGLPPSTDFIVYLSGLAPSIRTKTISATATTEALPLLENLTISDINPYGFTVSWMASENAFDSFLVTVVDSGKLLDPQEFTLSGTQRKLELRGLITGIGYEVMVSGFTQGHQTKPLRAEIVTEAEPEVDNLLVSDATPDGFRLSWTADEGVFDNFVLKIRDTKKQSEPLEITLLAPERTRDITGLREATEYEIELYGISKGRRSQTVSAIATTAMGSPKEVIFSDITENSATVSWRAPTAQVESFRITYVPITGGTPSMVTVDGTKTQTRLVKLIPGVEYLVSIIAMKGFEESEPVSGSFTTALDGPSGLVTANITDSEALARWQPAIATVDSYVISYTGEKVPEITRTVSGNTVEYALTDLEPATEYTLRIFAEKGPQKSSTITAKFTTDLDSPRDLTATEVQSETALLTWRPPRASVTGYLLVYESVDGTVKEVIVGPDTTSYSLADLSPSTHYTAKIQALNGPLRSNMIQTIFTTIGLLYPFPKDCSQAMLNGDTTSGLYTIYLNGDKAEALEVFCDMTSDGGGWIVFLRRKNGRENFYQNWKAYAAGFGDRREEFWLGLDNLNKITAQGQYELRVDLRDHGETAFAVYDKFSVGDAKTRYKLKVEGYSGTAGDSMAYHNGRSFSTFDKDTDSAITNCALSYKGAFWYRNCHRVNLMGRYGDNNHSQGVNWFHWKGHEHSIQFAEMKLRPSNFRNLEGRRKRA

| Kd (human tenascin-C (human) [1]) [nM] | % of Immunoreactivity (human tenascin-C (human) [2]) [%] | % of Immunoreactivity (human tenascin-C (human) [3]) [%] | % of Immunoreactivity (human tenascin-C (human) [4]) [%] | immunoreactivity (human tenascin-C (human) [5]) [%] | % of Immunoreactivity (human tenascin-C (human) [6]) [%] | Substance |
| --- | --- | --- | --- | --- | --- | --- |
| 4.9 | – | – | – | – | – | BC4 anti-human tenascin monoclonal antibody |
| – | 67.2 | 74.4 | 12.6 | 80 | 82.4 | biotinylated BC4 (antibody) |
